In patent publication US20260193366A1 (APOGEE THERAPEUTICS, published 2026):
Changes are numbered by the printed parent chain.

T1: hIL-4Rα on cells (human, UniProt P24394 26-825)
T1 sequence: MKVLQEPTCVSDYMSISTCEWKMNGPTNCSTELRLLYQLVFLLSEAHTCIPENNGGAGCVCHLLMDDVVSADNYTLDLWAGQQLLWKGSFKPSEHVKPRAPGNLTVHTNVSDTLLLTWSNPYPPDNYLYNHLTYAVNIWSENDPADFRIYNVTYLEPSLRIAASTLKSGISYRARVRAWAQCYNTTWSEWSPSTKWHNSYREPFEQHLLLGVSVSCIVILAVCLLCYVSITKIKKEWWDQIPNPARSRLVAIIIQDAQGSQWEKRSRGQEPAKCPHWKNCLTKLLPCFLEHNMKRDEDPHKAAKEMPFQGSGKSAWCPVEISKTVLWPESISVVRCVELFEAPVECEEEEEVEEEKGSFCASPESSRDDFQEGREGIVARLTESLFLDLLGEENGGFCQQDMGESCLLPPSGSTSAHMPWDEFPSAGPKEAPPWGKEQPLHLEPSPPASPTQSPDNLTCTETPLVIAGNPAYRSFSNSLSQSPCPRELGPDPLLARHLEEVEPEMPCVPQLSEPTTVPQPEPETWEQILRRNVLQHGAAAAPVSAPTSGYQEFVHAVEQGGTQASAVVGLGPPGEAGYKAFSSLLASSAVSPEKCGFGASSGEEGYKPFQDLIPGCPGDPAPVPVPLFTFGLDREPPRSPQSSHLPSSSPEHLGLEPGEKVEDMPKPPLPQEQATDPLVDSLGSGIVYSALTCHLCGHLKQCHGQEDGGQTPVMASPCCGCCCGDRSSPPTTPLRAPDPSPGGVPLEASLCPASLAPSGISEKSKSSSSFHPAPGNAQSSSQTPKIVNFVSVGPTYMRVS

T2: cynomolgus monkey IL-4Rα (cynomolgus monkey, UniProt P24394 26-231 (human entry), limits assumed)
T2 construct: also called Cyno IL-4Rα; cyIL-4Rα
T2 chain: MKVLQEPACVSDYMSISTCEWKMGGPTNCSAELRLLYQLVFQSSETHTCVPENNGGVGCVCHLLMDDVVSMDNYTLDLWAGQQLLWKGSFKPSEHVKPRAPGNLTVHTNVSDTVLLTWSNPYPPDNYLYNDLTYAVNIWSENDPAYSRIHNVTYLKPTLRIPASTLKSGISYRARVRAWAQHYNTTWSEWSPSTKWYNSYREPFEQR

T3: human IL-4Rα (human, UniProt P24394 26-232)
T3 construct: also called Hu IL-4Rα; hIL-4Rα
T3 sequence: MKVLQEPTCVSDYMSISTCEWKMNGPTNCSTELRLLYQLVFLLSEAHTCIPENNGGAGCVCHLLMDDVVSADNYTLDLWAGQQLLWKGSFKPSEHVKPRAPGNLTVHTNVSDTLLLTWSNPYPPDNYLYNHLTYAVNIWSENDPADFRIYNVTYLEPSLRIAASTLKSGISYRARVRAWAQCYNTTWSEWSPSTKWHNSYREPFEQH

B1: Construct 27 (mAb435) (antibody, IgG4, V domains shown)
VH: EVQLVESGGGLEQPGGSLRLSCAGSGFTFTDFAMTWVRQAPGKGLEWVSSISGSGGNKYYADSVKGRFTISRDNSKNTLYLQMNSLRAEDTAVYYCAKDRLSVTVRPRYYGLDVWGQGTTVTVSS
VL: DIVMTQSPLSLPVTPGEPASISCTASQSLLYSIGYNYVDWYLQKSGQSPQLLIYLGNKRASGVPDRFSGSGSGTDFTLKISRVEAEDVGFYYCMQSLTSPYTFGQGTKLEIK
notes: VH/VL only
B2: Construct 33 (mAb450) (antibody, IgG4, V domains shown)
VH: B1 VH with T30R, K58I, L101V, V103I, V105I
VL: B1 VL with N57S, S96A, T98G
notes: VH/VL only
B3: Construct 37 (mAb470) (antibody, IgG4, V domains shown)
VH: B1 VH with T30R, D31T, F32Y, S54G, K58T
VL: B1 VL with T24R, I33V, K58N
notes: VH/VL only
B4: Construct 28 (mAb436) (antibody, IgG4, V domains shown)
VH: B1 VH with T30R, I51V, K58T
VL: B1 VL with A25S, T98Q, S99T
notes: VH/VL only
B5: Construct 39 (mAb473) (antibody, IgG4, V domains shown)
VH: B1 VH with T30R, F32S, G56D, K58T, V103I
VL: B1 VL with T24R, A25S, Y35K, S96A, T98G
notes: VH/VL only
B6: Construct 40 (mAb476) (antibody, IgG4, V domains shown)
VH: B1 VH with T30R, I51V, S54D, K58T, V103K, V105I
VL: B1 VL with T24R, A25S, L29V, S96A, L97Y, T98Q, T102V
notes: VH/VL only
B7: Construct 34 (mAb459) (antibody, IgG4, V domains shown)
VH: B1 VH with T30R, G56D, K58I, V103K, V105I
VL: B1 VL with T24R, A25S, S28G, S96A, T98D, S99T
notes: VH/VL only
B8: Construct 36 (mAb469) (antibody, IgG4, V domains shown)
VH: B1 VH with T30R, K58I, V103K, V105I
VL: B1 VL with T24R, A25S, Y35K, L55E, K58N
notes: VH/VL only
B9: Construct 35 (mAb467) (antibody, IgG4, V domains shown)
VH: B1 VH with T30R, D31T, F32Y, K58T, L101V, V103I, V105I
VL: B1 VL with A25S, Y35K, L55E, K58N, S61T
notes: VH/VL only
B10: Construct 41 (mAb478) (antibody, IgG4, V domains shown)
VH: B1 VH with T30R, S54G, K58T, L101V, V103I, V105I
VL: B1 VL with S96A, L97Y, T98N
notes: VH/VL only
B11: Construct 42 (mAb481) (antibody, IgG4, V domains shown)
VH: B1 VH with T30R, D31T, F32Y, S54D, G56S, K58T, L101V, V103I, V105I
VL: B1 VL with S96A, S99T
notes: VH/VL only

What follows are binders tested against T1, hIL-4Rα on cells (assay: cell-based or functional assay).

Binder | Relative Inhibition of IL-4 induced TF-1 Proliferation IC50 | Relative Inhibition of IL-13 induced TF-1 Proliferation IC50
B1 | 0.962 relative to dupilumab | 0.773 relative to dupilumab
B2 | 1.05 relative to dupilumab | 0.926 relative to dupilumab
B3 | 0.943 relative to dupilumab | 0.919 relative to dupilumab
B4 | 1.19 relative to dupilumab | 0.634 relative to dupilumab
B5 | 1.18 relative to dupilumab | 1.21 relative to dupilumab
B6 | 0.968 relative to dupilumab | 1.01 relative to dupilumab
B7 | 1.46 relative to dupilumab | 1.55 relative to dupilumab
B8 | 1.05 relative to dupilumab | 1.25 relative to dupilumab
B9 | 0.948 relative to dupilumab | 1.11 relative to dupilumab
B10 | 0.82 relative to dupilumab | 1.15 relative to dupilumab
B11 | 1.19 relative to dupilumab | 1.19 relative to dupilumab

Biological target: T1, hIL-4Rα on cells
Assay: cell-based or functional assay
Remark: another data set of the same source

Binder | Relative Inhibition of IL-4 induced TARC IC50 | Relative Inhibition of IL-13 induced TARC IC50
B1 | 0.547 relative to dupilumab | 1.83 relative to dupilumab
B2 | 3.2 relative to dupilumab | 1.07 relative to dupilumab
B3 | 1.16 relative to dupilumab | 0.868 relative to dupilumab
B4 | 0.58 relative to dupilumab | 1.81 relative to dupilumab
B5 | 1.65 relative to dupilumab | 5.23 relative to dupilumab
B6 | 1.6 relative to dupilumab | 4.7 relative to dupilumab
B7 | 4.32 relative to dupilumab | 1.35 relative to dupilumab
B8 | 1.78 relative to dupilumab | 0.999 relative to dupilumab
B9 | 1.92 relative to dupilumab | 1.65 relative to dupilumab
B10 | 1.53 relative to dupilumab | 1.35 relative to dupilumab
B11 | 2.02 relative to dupilumab | 1.62 relative to dupilumab

Each binder was assayed against T1, hIL-4Rα on cells (assay: FACS on HEK293 cells, competitor biotin-hIL-4;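 also: HEK293 cells stably co-expressing hIL-13Rα and hIL-4Rα, stained for 1 h at 4 °C, read-out as mean fluorescence intensity by flow cytometry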).

Binder | Relative Blockade of IL-4 Binding IC50
B1 | 0.99 relative to dupilumab
B2 | 1.01 relative to dupilumab
B3 | 1.08 relative to dupilumab
B4 | 0.849 relative to dupilumab
B5 | 1.09 relative to dupilumab
B6 | 1.16 relative to dupilumab
B7 | 1.23 relative to dupilumab
B8 | 1.18 relative to dupilumab
B9 | 1.29 relative to dupilumab
B10 | 1.09 relative to dupilumab
B11 | 1.32 relative to dupilumab

Biological target: T1, hIL-4Rα on cells
Assay: cell-based or functional assay
Remark: another data set of the same source

Binder | Relative Inhibition of IL-4 induced pSTAT6 IC50 | Relative Inhibition of IL-13 induced pSTAT6 IC50
B1 | 0.676 relative to dupilumab | 0.38 relative to dupilumab
B2 | 0.888 relative to dupilumab | 1.59 relative to dupilumab
B3 | 0.713 relative to dupilumab | 1.22 relative to dupilumab
B4 | 0.999 relative to dupilumab | 0.497 relative to dupilumab
B5 | 0.81 relative to dupilumab | 2.17 relative to dupilumab
B6 | 0.633 relative to dupilumab | 1.89 relative to dupilumab
B7 | 0.464 relative to dupilumab | 2.42 relative to dupilumab
B8 | 0.957 relative to dupilumab | 2.16 relative to dupilumab
B9 | 0.766 relative to dupilumab | 2.71 relative to dupilumab
B10 | 1.18 relative to dupilumab | 1.97 relative to dupilumab
B11 | 0.81 relative to dupilumab | 2.78 relative to dupilumab

Biological target: T2, cynomolgus monkey IL-4Rα
Assay: SPR, Carterra LSA;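 also: antibodies captured on an anti-human Fc sensor chip, antigen injected at several concentrations, association and dissociation rates fitted with a 1:1 Langmuir model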

Binder | KD Relative to Dupilumab | Kd [nM]
B1 | 0.28 | 176
B2 | 0.05 | 33.9
B3 | 0.23 | 143
B4 | 0.09 | 54.7
B5 | 0.27 | 168
B6 | 0.22 | 136
B7 | 0.53 | 334
B8 | 0.61 | 385
B9 | 0.29 | 180
B10 | 0.39 | 248
B11 | 0.25 | 158

These binders were tested against T3, human IL-4Rα (assay: SPR, Carterra LSA;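 also: antibodies captured on an anti-human Fc sensor chip, antigen injected at several concentrations, association and dissociation rates fitted with a 1:1 Langmuir model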).

Binder | KD Relative to Dupilumab | Kd [nM]
B1 | 1.12 | 0.0126
B2 | 0.78 | 0.00875
B3 | 1.03 | 0.0116
B4 | 0.69 | 0.00777
B5 | 0.92 | 0.0104
B6 | 1.11 | 0.0126
B7 | 1.01 | 0.0114
B8 | 0.99 | 0.0112
B9 | 0.99 | 0.0112
B10 | 0.86 | 0.00973
B11 | 0.98 | 0.0111

Each binder was assayed against T1, hIL-4Rα on cells (assay: FACS on HEK293 cells, competitor biotin-hIL-13;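 also: stably transduced cells co-expressing both receptor chains, stained cold, with cell-bound signal read as mean fluorescence intensity by flow cytometry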).
Procedure: Briefly, HEK293 previously transduced to stably express both hIL-13Rα and hIL-4Rα were cultured and harvested. Cells were seeded at 200,000 cells in 100 uL per well. Cells were washed and the supernatant discarded. […] The cells were stained in this mixture at 4° C. for 1 hour. […] Cells were incubated 4° C. for 1 hour, protected from light. Cells were then washed and the MFI of cells in each well were recorded by FACS using a BD FACSCanto II. Subsequent data were analyzed using GraphPad Prism.

Binder | Relative Blockade of IL-13 Binding IC50
B1 | 0.592 relative to dupilumab
B2 | 1.21 relative to dupilumab
B3 | 1.05 relative to dupilumab
B4 | 0.611 relative to dupilumab
B5 | 1.05 relative to dupilumab
B6 | 1.19 relative to dupilumab
B7 | 1.21 relative to dupilumab
B8 | 1.22 relative to dupilumab
B9 | 1.25 relative to dupilumab
B10 | 1.15 relative to dupilumab
B11 | 1.34 relative to dupilumab
